Assay [1] has as its target ALPP/ALPPL2 on ALPP/ALPPL2 positive cancer cells. Briefly: cell-based or functional assay.
The target in assay [2] is ALPP/ALPPL2 on ALPP/ALPPL2 positive cancer cells (MKN1, NCI-H1651, NCI-N87, Caov-3, HPAC). Nature of the assay: cell-based or functional assay.

Data on 5 molecules can be found in US20260216242A1, “ALPP-SPECIFIC VARIANT ANTIGEN BINDING MOLECULES” (ALMAC DISCOVERY LIMITED, priority 2022, published 2026).

B1: D10 E06-hFc (S239/442C T366Y/Y407T) [G4S]3 conjugated to MC-vc-PAB-MMAE (Fc fusion, DAR 4.0)
chain 1: QVQLVESGGGLVQPGGSLRLSCAASGSIFSVNTMGWYRQAPGKQRDLVAVATSGGTIHYADSVKGRFTISRDNAKNTVYLQMNSLKPEDTAVYYCNLVVPYGMIAGDHDYWGQGTKVTVSSGGGGSGGGGSGGGGSEPKSSDKTHTCPPCPAPELLGGPCVFLFPPKPKDTLMISRTPEVTCVVVDVSHEDPEVKFNWYVDGVEVHNAKTKPREEQYNSTYRVVSVLTVLHQDWLNGKEYKCKVSNKALPAPIEKTISKAKGQPREPQVYTLPPSRDELTKNQVSLYCLVKGFYPSDIAVEWESNGQPENNYKTTPPVLDSDGSFFLYSKLTVDKSRWQQGNVFSCSVMHEALHNHYTQKSLCLSPGK
chain 2: QVHLVESGGGLVQAGGSLRLSCAASRRSFSEYAMGWFRQAPGKEREFVAAIGWSGVIEYADSVKGRFTISRDNAKDTVYLQMNSLKPEDTAVYYCAAGLGIRVVSQTPAYWGQGTQVTVSSGGGGSGGGGSGGGGSEPKSSDKTHTCPPCPAPELLGGPCVFLFPPKPKDTLMISRTPEVTCVVVDVSHEDPEVKFNWYVDGVEVHNAKTKPREEQYNSTYRVVSVLTVLHQDWLNGKEYKCKVSNKALPAPIEKTISKAKGQPREPQVYTLPPSRDELTKNQVSLTCLVKGFYPSDIAVEWESNGQPENNYKTTPPVLDSDGSFFLTSKLTVDKSRWQQGNVFSCSVMHEALHNHYTQKSLCLSPGK
modifications: here or on the partner: MC-vc-PAB-MMAE on Cys 239 and Cys 442 (S239C, S442C, EU numbering)
In assay [1], B1 had a % viability remaining, MDA-MB-468 cells of 16%; a % viability remaining, MKN-1 cells of 12%; a % viability remaining, NCI-H1651 cells of 21%; a % viability remaining, NCI-N87 cells of 34%. In addition, in assay [1], the half-maximal inhibitory concentration (IC50) (as a rule, the point on the concentration scale where inhibition reaches its midpoint) at 96 h (nM), cell-killing of MDA-MB-468 cells (Cell Titre Glo) stood at 1.55 nM; the IC50 at 96 h (nM), cell-killing of MKN-1 cells (Cell Titre Glo) was 0.1 nM; the concentration for half-maximal inhibition (IC50) at 96 h (nM), cell-killing of NCI-H1651 cells (Cell Titre Glo) turned out to be 0.53 nM; the IC50 at 96 h (nM), cell-killing of NCI-N87 cells (Cell Titre Glo) is 3.6 nM.

B2: D10 F05-hFc (S239/442C T366Y/Y407T) [G4S]3 conjugated to MC-vc-PAB-MMAE (Fc fusion, DAR 3.9)
chain 1: QVQLVESGGGLVQPGGSLRLSCAASGSIFSVNTMGWYRQAPGKQRDLVAVATSGGTIHYADSVKGRFTISRDNAKNTVYLQMNSLKPEDTAVYYCNLVVPYGMIAGDHDYWGQGTKVTVSSGGGGSGGGGSGGGGSEPKSSDKTHTCPPCPAPELLGGPCVFLFPPKPKDTLMISRTPEVTCVVVDVSHEDPEVKFNWYVDGVEVHNAKTKPREEQYNSTYRVVSVLTVLHQDWLNGKEYKCKVSNKALPAPIEKTISKAKGQPREPQVYTLPPSRDELTKNQVSLYCLVKGFYPSDIAVEWESNGQPENNYKTTPPVLDSDGSFFLYSKLTVDKSRWQQGNVFSCSVMHEALHNHYTQKSLCLSPGK
chain 2: QVQLVESGGGLVQAGGSLRLSCAASGRAFGDYNIGWFRQAPGKEREFVARRTWDGSSTRYDDSVKGRFTVSIDNAKNTAYLQMNSLKTEDTAVYYCAAGRYSRVRGWEYDYWGQGTQVTVSSGGGGSGGGGSGGGGSEPKSSDKTHTCPPCPAPELLGGPCVFLFPPKPKDTLMISRTPEVTCVVVDVSHEDPEVKFNWYVDGVEVHNAKTKPREEQYNSTYRVVSVLTVLHQDWLNGKEYKCKVSNKALPAPIEKTISKAKGQPREPQVYTLPPSRDELTKNQVSLTCLVKGFYPSDIAVEWESNGQPENNYKTTPPVLDSDGSFFLTSKLTVDKSRWQQGNVFSCSVMHEALHNHYTQKSLCLSPGK
modifications: here or on the partner: MC-vc-PAB-MMAE on Cys 239 and Cys 442 (S239C, S442C, EU numbering)
For B2, in assay [1], the % viability remaining, MDA-MB-468 cells came out at 17%; the % viability remaining, MKN-1 cells amounted to 13%; the % viability remaining, NCI-H1651 cells amounted to 22%; the % viability remaining, NCI-N87 cells came to 37%. In assay [1], this molecule displayed a concentration for half-maximal inhibition (IC50) at 96 h (nM), cell-killing of MDA-MB-468 cells (Cell Titre Glo) of 0.96 nM; an IC50 at 96 h (nM), cell-killing of MKN-1 cells (Cell Titre Glo) of 0.12 nM; an IC50 at 96 h (nM), cell-killing of NCI-H1651 cells (Cell Titre Glo) of 0.74 nM; an IC50 at 96 h (nM), cell-killing of NCI-N87 cells (Cell Titre Glo) of 1.8 nM.

B3: A06 F05-hFc (S239/442C T366Y/Y407T) [G4S]3 conjugated to MC-vc-PAB-MMAE (Fc fusion, DAR 4.0)
chain 1: QVHLVESGGGLVQAGGSLRLSCAASGRTFLSMGWFRQAPGKEREFVAAISWTGGSTGYADSVKGRFTISRESDKETMYLQMNSLKPEDTAVYYCAARGDVYYGGDDATRYKYWGQGTQVTVSSGGGGSGGGGSGGGGSEPKSSDKTHTCPPCPAPELLGGPCVFLFPPKPKDTLMISRTPEVTCVVVDVSHEDPEVKFNWYVDGVEVHNAKTKPREEQYNSTYRVVSVLTVLHQDWLNGKEYKCKVSNKALPAPIEKTISKAKGQPREPQVYTLPPSRDELTKNQVSLYCLVKGFYPSDIAVEWESNGQPENNYKTTPPVLDSDGSFFLYSKLTVDKSRWQQGNVFSCSVMHEALHNHYTQKSLCLSPGK
chain 2: QVQLVESGGGLVQAGGSLRLSCAASGRAFGDYNIGWFRQAPGKEREFVARRTWDGSSTRYDDSVKGRFTVSIDNAKNTAYLQMNSLKTEDTAVYYCAAGRYSRVRGWEYDYWGQGTQVTVSSGGGGSGGGGSGGGGSEPKSSDKTHTCPPCPAPELLGGPCVFLFPPKPKDTLMISRTPEVTCVVVDVSHEDPEVKFNWYVDGVEVHNAKTKPREEQYNSTYRVVSVLTVLHQDWLNGKEYKCKVSNKALPAPIEKTISKAKGQPREPQVYTLPPSRDELTKNQVSLTCLVKGFYPSDIAVEWESNGQPENNYKTTPPVLDSDGSFFLTSKLTVDKSRWQQGNVFSCSVMHEALHNHYTQKSLCLSPGK
modifications: here or on the partner: MC-vc-PAB-MMAE on Cys 239 and Cys 442 (S239C, S442C, EU numbering)
In assay [1], B3 returned a % viability remaining, MDA-MB-468 cells of 17%; a % viability remaining, MKN-1 cells of 16%; a % viability remaining, NCI-H1651 cells of 22%; a % viability remaining, NCI-N87 cells of 36%. In assay [1], the IC50 at 96 h (nM), cell-killing of MDA-MB-468 cells (Cell Titre Glo) came to 12 nM; the IC50 at 96 h (nM), cell-killing of MKN-1 cells (Cell Titre Glo) stood at 0.26 nM; the 50% inhibitory concentration (IC50) at 96 h (nM), cell-killing of NCI-H1651 cells (Cell Titre Glo) was 0.47 nM; the 50% inhibitory concentration (IC50) at 96 h (nM), cell-killing of NCI-N87 cells (Cell Titre Glo) turned out to be 7.9 nM.

B4: D10 F05-hFc (S239/442C T366Y/Y407T) [G4S]1 conjugated to MC-vc-PAB-MMAE (Fc fusion, DAR 4.0)
chain 1: QVQLVESGGGLVQPGGSLRLSCAASGSIFSVNTMGWYRQAPGKQRDLVAVATSGGTIHYADSVKGRFTISRDNAKNTVYLQMNSLKPEDTAVYYCNLVVPYGMIAGDHDYWGQGTKVTVSSGGGGSEPKSSDKTHTCPPCPAPELLGGPCVFLFPPKPKDTLMISRTPEVTCVVVDVSHEDPEVKFNWYVDGVEVHNAKTKPREEQYNSTYRVVSVLTVLHQDWLNGKEYKCKVSNKALPAPIEKTISKAKGQPREPQVYTLPPSRDELTKNQVSLYCLVKGFYPSDIAVEWESNGQPENNYKTTPPVLDSDGSFFLYSKLTVDKSRWQQGNVFSCSVMHEALHNHYTQKSLCLSPGK
chain 2: QVQLVESGGGLVQAGGSLRLSCAASGRAFGDYNIGWFRQAPGKEREFVARRTWDGSSTRYDDSVKGRFTVSIDNAKNTAYLQMNSLKTEDTAVYYCAAGRYSRVRGWEYDYWGQGTQVTVSSGGGGSEPKSSDKTHTCPPCPAPELLGGPCVFLFPPKPKDTLMISRTPEVTCVVVDVSHEDPEVKFNWYVDGVEVHNAKTKPREEQYNSTYRVVSVLTVLHQDWLNGKEYKCKVSNKALPAPIEKTISKAKGQPREPQVYTLPPSRDELTKNQVSLTCLVKGFYPSDIAVEWESNGQPENNYKTTPPVLDSDGSFFLTSKLTVDKSRWQQGNVFSCSVMHEALHNHYTQKSLCLSPGK
modifications: here or on the partner: MC-vc-PAB-MMAE on Cys 239 and Cys 442 (S239C, S442C, EU numbering)
For the molecule B4, in assay [1], the % viability remaining, MDA-MB-468 cells was found to be 17%; the % viability remaining, MKN-1 cells turned out to be 16%; the % viability remaining, NCI-H1651 cells is 22%; the % viability remaining, NCI-N87 cells is 35%. In assay [1], this molecule had an IC50 at 96 h (nM), cell-killing of MDA-MB-468 cells (Cell Titre Glo) of 2.36 nM; an IC50 at 96 h (nM), cell-killing of MKN-1 cells (Cell Titre Glo) of 0.14 nM; an IC50 at 96 h (nM), cell-killing of NCI-H1651 cells (Cell Titre Glo) of 0.85 nM; a 50% inhibitory concentration (IC50) at 96 h (nM), cell-killing of NCI-N87 cells (Cell Titre Glo) of 2 nM.

B5: A06 F05-hFc (S239/442C T366Y/Y407T), [G4S]1 linker, MC-vc-PAB-MMAE conjugate, #712 (Fc fusion, DAR 4)
chain 1: QVHLVESGGGLVQAGGSLRLSCAASGRTFLSMGWFRQAPGKEREFVAAISWTGGSTGYADSVKGRFTISRESDKETMYLQMNSLKPEDTAVYYCAARGDVYYGGDDATRYKYWGQGTQVTVSSGGGGSEPKSSDKTHTCPPCPAPELLGGPCVFLFPPKPKDTLMISRTPEVTCVVVDVSHEDPEVKFNWYVDGVEVHNAKTKPREEQYNSTYRVVSVLTVLHQDWLNGKEYKCKVSNKALPAPIEKTISKAKGQPREPQVYTLPPSRDELTKNQVSLYCLVKGFYPSDIAVEWESNGQPENNYKTTPPVLDSDGSFFLYSKLTVDKSRWQQGNVFSCSVMHEALHNHYTQKSLCLSPGK
chain 2: QVQLVESGGGLVQAGGSLRLSCAASGRAFGDYNIGWFRQAPGKEREFVARRTWDGSSTRYDDSVKGRFTVSIDNAKNTAYLQMNSLKTEDTAVYYCAAGRYSRVRGWEYDYWGQGTQVTVSSGGGGSEPKSSDKTHTCPPCPAPELLGGPCVFLFPPKPKDTLMISRTPEVTCVVVDVSHEDPEVKFNWYVDGVEVHNAKTKPREEQYNSTYRVVSVLTVLHQDWLNGKEYKCKVSNKALPAPIEKTISKAKGQPREPQVYTLPPSRDELTKNQVSLTCLVKGFYPSDIAVEWESNGQPENNYKTTPPVLDSDGSFFLTSKLTVDKSRWQQGNVFSCSVMHEALHNHYTQKSLCLSPGK
modifications: here or on the partner: MC-vc-PAB-MMAE on Cys of S239C and S442C (EU numbering)
On to B5, for which, in assay [2], the % viability remaining at 96 h, MKN1 cells turned out to be 27.1%; the % viability remaining at 96 h, NCI-H1651 cells worked out at 31.3%; the % viability remaining at 96 h, NCI-N87 cells is 20.7%; the concentration for half-maximal inhibition (IC50) at 96 h, cell-killing of MKN1 cells was found to be 45.9 nM. In assay [2], this molecule showed an IC50 at 96 h, cell-killing of NCI-H1651 cells of 0.9 nM and an IC50 at 96 h, cell-killing of NCI-N87 cells of 0.7 nM.
